Source: patent publication US20210155689A1 (SHANGHAI PHARMAEXPLORER, published 2021)
Primed or numbered codes have the meaning given here. No end group written: not given here. Biotin′ = biotin label at the C-terminus

T1: LAG-3-hFc protein (human LAG-3 extracellular region with hFc tag) (human, UniProt P18627 23-450)
T1 construct: also called hLAG-3-hFc; LAG-3 protein; not shown: human IgG Fc fragment (hFc) of the pCpC vector
T1 sequence: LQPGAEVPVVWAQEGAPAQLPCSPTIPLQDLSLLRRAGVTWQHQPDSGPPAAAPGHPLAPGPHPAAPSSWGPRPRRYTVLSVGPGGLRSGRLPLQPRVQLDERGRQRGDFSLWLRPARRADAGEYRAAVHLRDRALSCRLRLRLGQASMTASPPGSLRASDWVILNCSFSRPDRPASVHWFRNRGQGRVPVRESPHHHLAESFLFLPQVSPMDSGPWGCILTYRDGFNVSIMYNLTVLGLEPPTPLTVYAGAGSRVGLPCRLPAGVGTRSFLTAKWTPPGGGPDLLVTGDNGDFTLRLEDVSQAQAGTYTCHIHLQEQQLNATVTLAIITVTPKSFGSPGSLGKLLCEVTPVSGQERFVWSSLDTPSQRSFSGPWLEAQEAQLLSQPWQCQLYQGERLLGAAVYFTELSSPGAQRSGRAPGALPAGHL

T2: human LAG-3 protein with hFc tag (hLAG-3-hFc protein) (human, UniProt P18627 23-450)
T2 construct: also called immunogen 1; LAG-3 extracellular domain protein; not shown: human IgG Fc fragment (hFc) of the pCpC vector
T2 sequence: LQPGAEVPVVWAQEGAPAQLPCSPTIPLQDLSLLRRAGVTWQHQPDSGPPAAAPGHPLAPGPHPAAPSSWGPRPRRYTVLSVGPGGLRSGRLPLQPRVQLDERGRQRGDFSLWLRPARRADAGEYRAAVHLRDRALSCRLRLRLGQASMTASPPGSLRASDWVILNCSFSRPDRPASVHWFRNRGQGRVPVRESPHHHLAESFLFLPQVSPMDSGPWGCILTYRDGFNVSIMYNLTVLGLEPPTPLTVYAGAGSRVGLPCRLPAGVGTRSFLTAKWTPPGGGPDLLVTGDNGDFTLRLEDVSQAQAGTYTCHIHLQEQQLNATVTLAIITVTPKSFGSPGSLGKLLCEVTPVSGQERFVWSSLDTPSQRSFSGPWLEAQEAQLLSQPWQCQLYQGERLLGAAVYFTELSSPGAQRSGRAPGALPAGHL

T3: SWGPRPRRYTVLK-Biotin (human)
T3 construct: Overlapping peptide of the outer loop of human LAG-3; also called LAG-3 Extra cyclic peptide
T3 peptide: SWGPRPRRYTVLK-{Biotin′}

T4: SSWGPRPRRYTVK-Biotin (human)
T4 construct: Overlapping peptide of the outer loop of human LAG-3; also called LAG-3 Extra cyclic peptide
T4 peptide: SSWGPRPRRYTVK-{Biotin′}

T5: AAPSSWGPRPRRK-Biotin (human)
T5 construct: Overlapping peptide of the outer loop of human LAG-3; also called LAG-3 Extra cyclic peptide
T5 peptide: AAPSSWGPRPRRK-{Biotin′}

T6: APSSWGPRPRRYK-Biotin (human)
T6 construct: Overlapping peptide of the outer loop of human LAG-3; also called LAG-3 Extra cyclic peptide
T6 peptide: APSSWGPRPRRYK-{Biotin′}

T7: GPPAAAPGHPLAPGPHPAAPSSWGPRPRRYK-biotin (full length of the outer loop) (human, biotin coupled to the C-terminus (K-biotin))
T7 construct: Printed over two rows (r36 and r37; again r54 and r55); also called LAG-3 Extra cyclic peptide
T7 peptide: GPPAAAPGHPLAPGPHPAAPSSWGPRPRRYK

T8: PAAPSSWGPRPRK-Biotin (human)
T8 construct: Overlapping peptide of the outer loop of human LAG-3; also called LAG-3 Extra cyclic peptide
T8 peptide: PAAPSSWGPRPRK-{Biotin′}

T9: WGPRPRRYTVLSK-Biotin (human)
T9 construct: Overlapping peptide of the outer loop of human LAG-3; also called LAG-3 Extra cyclic peptide
T9 peptide: WGPRPRRYTVLSK-{Biotin′}

B1: 556F6B8 mouse-human chimeric antibody (antibody, V domains shown)
VH: RVQLKQSGPGLVQPSQSLSITCTVSGFSLIKYGVHWVRQSPGEGLEWLGVIWRGGITDYNAAFMSRLSITKDNSKSQVFFKMNSLQADDTAIYYCAKWDGPLAMDYWGQGTSVTVSS
VL: DIVMTQSHKFLSTSVGDRVSITCKASQDVGTTVAWYQQKPGQSPKLLIYWASTRHTGVPDRFTGSGSGTDFTLTISNVQSEDLADYFCQQYSSYPYTFGGGTKLEIK
notes: also called mAb123-556F6B8; 556F8B8
B2: 556F6B8 (mouse antibody purified from hybridoma) (antibody, V domains shown)
VH: RVQLKQSGPGLVQPSQSLSITCTVSGFSLIKYGVHWVRQSPGEGLEWLGVIWRGGITDYNAAFMSRLSITKDNSKSQVFFKMNSLQADDTAIYYCAKWDGPLAMDYWGQGTSVTVSS
VL: DIVMTQSHKFLSTSVGDRVSITCKASQDVGTTVAWYQQKPGQSPKLLIYWASTRHTGVPDRFTGSGSGTDFTLTISNVQSEDLADYFCQQYSSYPYTFGGGTKLEIK
notes: also called mAb123-556F6B8
B3: 405B8H3 (mouse antibody purified from hybridoma) (antibody, V domains shown)
VH: QVQLQQSGAELVRPGASVTLSCKASGYTFTDYEMHWVKQTPVHGLEWIGATDPETGNSAYNQKFKGKAIMTADKSSSTAYMELRSLTSEDSAVYYCISTGWNDWGQGTSLTVSS
VL: DIKMTQSPSSMYASLGERVTITCKASQDINSYLSWFQQKPGKSPKTLIYRADRLLDGVPSRFSGSGSGQDYSLTISSLEYGDMGIYYCLQYDEFPYTFGGGTKLEIK
notes: also called mAb103-405B8H3; 405B81-13
B4: 405B8H3 mouse-human chimeric antibody (antibody, V domains shown)
VH: QVQLQQSGAELVRPGASVTLSCKASGYTFTDYEMHWVKQTPVHGLEWIGATDPETGNSAYNQKFKGKAIMTADKSSSTAYMELRSLTSEDSAVYYCISTGWNDWGQGTSLTVSS
VL: DIKMTQSPSSMYASLGERVTITCKASQDINSYLSWFQQKPGKSPKTLIYRADRLLDGVPSRFSGSGSGQDYSLTISSLEYGDMGIYYCLQYDEFPYTFGGGTKLEIK
notes: also called mAb103-405B8H3
B5: 105F1E10 mouse-human chimeric antibody (antibody, V domains shown)
VH: EVQLQQSGPELVKPGASVKMSCRASGYTFTDFKMHWMKQSHGKSLEWIGYIAPNNGGTAYNQKFRGKATLTVNESSNTAYMELRSLTSEDSAVYYCVDWDDVDYWGQGTTLTVSS
VL: DIKMTQSPSSMYASLGERVTITCKASQDINSYLSWFQQKSGKSPKTLIYRANRLVDGVPSRFSGSGSGQDYSLTISSLEYEDMGIYYCLQYVEFPLTFGAGTKLELK
notes: also called mAb009-105F1E10
B6: 105F1E10 (mouse antibody purified from hybridoma) (antibody, V domains shown)
VH: EVQLQQSGPELVKPGASVKMSCRASGYTFTDFKMHWMKQSHGKSLEWIGYIAPNNGGTAYNQKFRGKATLTVNESSNTAYMELRSLTSEDSAVYYCVDWDDVDYWGQGTTLTVSS
VL: DIKMTQSPSSMYASLGERVTITCKASQDINSYLSWFQQKSGKSPKTLIYRANRLVDGVPSRFSGSGSGQDYSLTISSLEYEDMGIYYCLQYVEFPLTFGAGTKLELK
notes: also called mAb009-105F1E10
B7: 409D4E10 (mouse antibody purified from hybridoma) (antibody, V domains shown)
VH: QVQLQQSGAELVRPGASVTLSCKASGNTFTDYEMHWVKQTPVHGLEWIGATDPETDNTAYNQKFKGKAILTTDKSSSTAYMELRSLTSEDSAVYYCITSGWNDWGQGTSLTVSS
VL: DIKMTQSPSSMYASLGERVTITCKASQDINSYLSWFQQKPGKSPKTLIYRANRLLDGVPSRFSGSGSGQDYSLTISSLEYEDMGIYYCLQYNEFPYTFGGGTKLEIK
notes: also called mAb112-409D4E10
B8: 409B11E12 (mouse antibody purified from hybridoma) (antibody, V domains shown)
VH: QVQLQQSGAELVRPGASVTLSCKASGYTFTDYEMHWVKQTTVHGLEWIGATDPETSYSAYNQKFKGKAILTADKSSSTAYMELRSLTSEDSAVYYCIATGWNDWGQGTSLTVSS
VL: DLKMTQSPSSMYASLGERVTITCKASQDINSYLSWFQQKPGKSPKTLIYRANRLLDGVPSRFSGSGSGQDYSLTISSLEYEDMGIYYCLQYDEFPYTFGGGTKLEIK
notes: also called mAb104-409B11E12
B9: 409D4E10 mouse-human chimeric antibody (antibody, V domains shown)
VH: QVQLQQSGAELVRPGASVTLSCKASGNTFTDYEMHWVKQTPVHGLEWIGATDPETDNTAYNQKFKGKAILTTDKSSSTAYMELRSLTSEDSAVYYCITSGWNDWGQGTSLTVSS
VL: DIKMTQSPSSMYASLGERVTITCKASQDINSYLSWFQQKPGKSPKTLIYRANRLLDGVPSRFSGSGSGQDYSLTISSLEYEDMGIYYCLQYNEFPYTFGGGTKLEIK
notes: also called mAb112-409D4E10
B10: 409B11E12 mouse-human chimeric antibody (antibody, V domains shown)
VH: QVQLQQSGAELVRPGASVTLSCKASGYTFTDYEMHWVKQTTVHGLEWIGATDPETSYSAYNQKFKGKAILTADKSSSTAYMELRSLTSEDSAVYYCIATGWNDWGQGTSLTVSS
VL: DLKMTQSPSSMYASLGERVTITCKASQDINSYLSWFQQKPGKSPKTLIYRANRLLDGVPSRFSGSGSGQDYSLTISSLEYEDMGIYYCLQYDEFPYTFGGGTKLEIK
notes: also called mAb104-409B11E12

Tests used:
[1] = target: T1, LAG-3-hFc protein (human LAG-3 …); experiment: FACS, inhibition of LAG-3-hFc binding to MHC II on Raji cells, antibody 66.667 nM
Method: (§1) The FACS reaction plate incubating the Raji cells was centrifuged to discard the supernatant. The above mixture was added as 100 μl per well to Raji cells and incubated on ice for 1-2 hours. The plate was washed twice with blocking solution (PBS, 2% fetal bovine serum) by centrifugation, added with 100 microliters of fluorescent (Alexa 488)-labeled secondary antibodies per well, and incubated on ice for 1.0 hours. The plate was washed 2-3 times by centrifugation with blocking solution (PBS, 2% fetal bovine serum), added with 100 microliters of PBS per well to suspend cells, and detected using FACS (FACS Calibur, BD) and the results were analyzed. Wherein, the IgG control was murine IgG, and the data in the table is the inhibition rate (%).

[2] = target: T2, human LAG-3 protein with hFc tag …; experiment: FACS, blocks LAG-3-hFc binding to MHC II on Raji; 0.000 nM
Method: as §1

SWGPRPRRYTVLK-Biotin = target: T3, SWGPRPRRYTVLK-Biotin; experiment: peptide scanning ELISA, biotin peptide on streptavidin
Method: (§2) Fifteen overlapping peptides including the full length of the outer loop sequence were prepared and biotin was coupled to each C-terminus. Enzyme-linked immunosorbent assay (ELISA) was used to detect the binding of antibodies to these peptides. Streptavidin (sigma, Cat #M5432) was diluted with PBS to a final concentration of 1.0 μg/ml, and then added as 100 μl per well to a 96-well ELISA plate. The plate was sealed with plastic film and incubated overnight at 4° C. The plate was washed 2 times with the plate washing solution (PBS+0.01% Tween20) on the next day, and added with the blocking solution (PBS+0.01% Tween20+1% BSA) and blocked at room temperature for 1-2 hours. The blocking solution was poured off, and biotinylated peptides was added to a final concentration of 1 ug/ml, as 100 ul per well to the 96-well ELISA plate, incubated at 37° C. for 1-2 hours, then washed with plate washing solution (PBS+0.01% Tween20)2-3 times. Then the antibody samples to be tested were incubated as 100 μl per well at 37° C. for 1-2 hours, and then the plate was washed 2-3 times with a plate washing solution (PBS+0.01% Tween20). HRP (horseradish peroxidase) labeled secondary antibody was added, and the plate was incubated at 37° C. for 1-2 hours, and washed 2-3 times with a plate washing solution (PBS+0.01% Tween20). 100 μl of TMB substrate was added to each well. After incubated at room temperature for 15-30 minutes, the plate was added with 100 μl of stop solution (1.0N HCl) to each well.

SSWGPRPRRYTVK-Biotin = target: T4, SSWGPRPRRYTVK-Biotin; experiment: as above
Method: as §2

AAPSSWGPRPRRK-Biotin = target: T5, AAPSSWGPRPRRK-Biotin; experiment: as above
Method: as §2

APSSWGPRPRRYK-Biotin = target: T6, APSSWGPRPRRYK-Biotin; experiment: as above
Method: as §2

[3] = target: T7, GPPAAAPGHPLAPGPHPAAPSSWGPRPRRYK-biotin …; experiment: as above
Method: as §2

PAAPSSWGPRPRK-Biotin = target: T8, PAAPSSWGPRPRK-Biotin; experiment: as above
Method: as §2

WGPRPRRYTVLSK-Biotin = target: T9, WGPRPRRYTVLSK-Biotin; experiment: as above
Method: as §2

Row | Binder | Inhibition rate (%) [1] [%] | Inhibition rate (%) [2] [%] | binding result (SWGPRPRRYTVLK-Biotin) | binding result (SSWGPRPRRYTVK-Biotin) | binding result (AAPSSWGPRPRRK-Biotin) | binding result (APSSWGPRPRRYK-Biotin) | binding result [3] | binding result (PAAPSSWGPRPRK-Biotin) | binding result (WGPRPRRYTVLSK-Biotin)
1 | B1 | 96 |  |  |  |  |  |  |  | 
2 | B2 |  | -10.7 |  |  |  |  |  |  | 
3 | B3 |  | 0.3 | binds | binds | binds | binds | binds | binds | binds
4 | B4 | 95.8 |  |  |  |  |  |  |  | 
5 | B5 | 96 |  |  |  |  |  |  |  | 
6 | B6 |  | -14 | binds | binds | binds | binds | binds | binds | binds
7 | B7 |  | -21.4 | binds | binds | binds | binds | binds | binds | binds
8 | B8 |  | -21.2 | binds | binds | binds | binds | binds | binds | binds
9 | B9 | 95.9 |  |  |  |  |  |  |  | 
10 | B10 | 95.3 |  |  |  |  |  |  |  | 
